Measured values as given in patent US20140087995A1 (published 2014).
Numbered stars: 1 amine (or outer) side, 2 acyl side, 3 side chain; on linkers, the order of the positions; unused ones are H or OH. Bridge positions count the residues as written; N and C are the ends. Side chains are listed from the residue outwards. Ends that are not written are not given here. * marks the point of attachment. C20 diacid = O=C(O)CCCCCCCCCCCCCCCCCCC(=O)*; γGlu = O=C(O)[C@H](CCC(=O)[*:2])N[*:1]; AEEA = NCCOCCOCC(=O)O

Molecular target: T1, human amylin receptor (amylin 3(a) receptor: human calcitonin receptor with RAMP-3) (human, UniProt P30988 25-474; O60896 24-148)
T1 construct: whole, on cells; also called hAmylin-R; hAmylinR
T1 sequence (looked up) 1: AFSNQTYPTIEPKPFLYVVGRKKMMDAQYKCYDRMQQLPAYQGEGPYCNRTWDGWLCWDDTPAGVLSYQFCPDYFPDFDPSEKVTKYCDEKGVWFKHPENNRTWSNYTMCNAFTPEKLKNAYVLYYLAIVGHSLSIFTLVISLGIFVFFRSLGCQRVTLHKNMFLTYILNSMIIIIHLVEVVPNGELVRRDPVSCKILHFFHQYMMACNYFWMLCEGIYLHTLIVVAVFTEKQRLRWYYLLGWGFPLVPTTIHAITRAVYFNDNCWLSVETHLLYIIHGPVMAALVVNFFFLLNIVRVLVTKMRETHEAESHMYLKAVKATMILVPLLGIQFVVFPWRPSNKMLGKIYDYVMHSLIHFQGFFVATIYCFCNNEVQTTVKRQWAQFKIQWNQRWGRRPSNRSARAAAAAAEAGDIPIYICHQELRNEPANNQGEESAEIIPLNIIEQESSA
T1 sequence (looked up) 2: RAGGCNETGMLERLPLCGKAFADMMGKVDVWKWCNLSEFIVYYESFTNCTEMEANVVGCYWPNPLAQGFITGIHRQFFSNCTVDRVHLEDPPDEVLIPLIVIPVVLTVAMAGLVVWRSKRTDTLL
Assay: SPA displacement of 125I-rat amylin, hAmylin 3(a) receptor membranes
Outline: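 Cell membranes were prepared by homogenisation in Na-HEPES/EDTA buffer, pH 7.4, and stored at −80° C. They were then coupled to SPA beads at 35 ng/μL final and exposed to compounds in assay buffer containing CaCl2, MgCl₂, OA and Tween20. After 120 min at 25° C, plates were counted and IC₅₀ derived.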

B1: N^ε1-[2-[2-[2-[[(4S)-4-carboxy-4-(19-carboxynonadecanoylamino)butanoyl]amino]ethoxy]ethoxy]acetyl]-[Ser14,Arg17,Pro21,Pro27,Pro31]-h-amylin (peptide)
peptide: K([AEEA-γGlu-C20 diacid])CNTATCATQRLASFLRHSSPNFGAIPSSTPVGSNTY-NH2
modifications: disulfide 2-7; N-terminus assumed
SMILES: CC[C@H](C)[C@H](NC(=O)[C@H](C)NC(=O)CNC(=O)[C@H](Cc1ccccc1)NC(=O)[C@H](CC(N)=O)NC(=O)[C@@H]1CCCN1C(=O)[C@H](CO)NC(=O)[C@H](CO)NC(=O)[C@H](Cc1c[nH]cn1)NC(=O)[C@H](CCCNC(=N)N)NC(=O)[C@H](CC(C)C)NC(=O)[C@H](Cc1ccccc1)NC(=O)[C@H](CO)NC(=O)[C@H](C)NC(=O)[C@H](CC(C)C)NC(=O)[C@H](CCCNC(=N)N)NC(=O)[C@H](CCC(N)=O)NC(=O)[C@@H](NC(=O)[C@H](C)NC(=O)[C@@H]1CSSC[C@H](NC(=O)[C@@H](N)CCCCNC(=O)COCCOCCNC(=O)CC[C@H](NC(=O)CCCCCCCCCCCCCCCCCCC(=O)O)C(=O)O)C(=O)N[C@@H](CC(N)=O)C(=O)N[C@@H]([C@@H](C)O)C(=O)N[C@@H](C)C(=O)N[C@@H]([C@@H](C)O)C(=O)N1)[C@@H](C)O)C(=O)N1CCC[C@H]1C(=O)N[C@@H](CO)C(=O)N[C@@H](CO)C(=O)N[C@H](C(=O)N1CCC[C@H]1C(=O)N[C@H](C(=O)NCC(=O)N[C@@H](CO)C(=O)N[C@@H](CC(N)=O)C(=O)N[C@H](C(=O)N[C@@H](Cc1ccc(O)cc1)C(N)=O)[C@@H](C)O)C(C)C)[C@@H](C)O
notes: also called 73; compound 73
Question: For B1, which IC50 is on record?
Answer: 104 pM

B2: N^ε1-[2-[2-[2-[[(4S)-4-carboxy-4-(19-carboxynonadecanoylamino)butanoyl]amino]ethoxy]ethoxy]acetyl]-[Thr14,Arg17,Pro21,Pro27,Pro31]-h-amylin (peptide)
peptide: K([AEEA-γGlu-C20 diacid])CNTATCATQRLATFLRHSSPNFGAIPSSTPVGSNTY-NH2
modifications: disulfide 2-7; N-terminus assumed
SMILES: CC[C@H](C)[C@H](NC(=O)[C@H](C)NC(=O)CNC(=O)[C@H](Cc1ccccc1)NC(=O)[C@H](CC(N)=O)NC(=O)[C@@H]1CCCN1C(=O)[C@H](CO)NC(=O)[C@H](CO)NC(=O)[C@H](Cc1c[nH]cn1)NC(=O)[C@H](CCCNC(=N)N)NC(=O)[C@H](CC(C)C)NC(=O)[C@H](Cc1ccccc1)NC(=O)[C@@H](NC(=O)[C@H](C)NC(=O)[C@H](CC(C)C)NC(=O)[C@H](CCCNC(=N)N)NC(=O)[C@H](CCC(N)=O)NC(=O)[C@@H](NC(=O)[C@H](C)NC(=O)[C@@H]1CSSC[C@H](NC(=O)[C@@H](N)CCCCNC(=O)COCCOCCNC(=O)CC[C@H](NC(=O)CCCCCCCCCCCCCCCCCCC(=O)O)C(=O)O)C(=O)N[C@@H](CC(N)=O)C(=O)N[C@@H]([C@@H](C)O)C(=O)N[C@@H](C)C(=O)N[C@@H]([C@@H](C)O)C(=O)N1)[C@@H](C)O)[C@@H](C)O)C(=O)N1CCC[C@H]1C(=O)N[C@@H](CO)C(=O)N[C@@H](CO)C(=O)N[C@H](C(=O)N1CCC[C@H]1C(=O)N[C@H](C(=O)NCC(=O)N[C@@H](CO)C(=O)N[C@@H](CC(N)=O)C(=O)N[C@H](C(=O)N[C@@H](Cc1ccc(O)cc1)C(N)=O)[C@@H](C)O)C(C)C)[C@@H](C)O
notes: also called 75; compound 75
Question: With B2 as the binder, how does the IC50 read?
Answer: 666 pM
